# B1: TRAF2 and NCK-interacting protein kinase (Homo sapiens), Q9UKE5 (parent)
# chain: MASDSPARSLDEIDLSALRDPAGIFELVELVGNGTYGQVYKGRHVKTGQLAAIKVMDVTGDEEEEIKQEINMLKKYSHHRNIATYYGAFIKKNPPGMDDQLWLVMEFCGAGSVTDLIKNTKGNTLKEEWIAYICREILRGLSHLHQHKVIHRDIKGQNVLLTENAEVKLVDFGVSAQLDRTVGRRNTFIGTPYWMAPEVIACDENPDATYDFKSDLWSLGITAIEMAEGAPPLCDMHPMRALFLIPRNPAPRLKSKKWSKKFQSFIESCLVKNHSQRPATEQLMKHPFIRDQPNERQVRIQLKDHIDRTKKKRGEKDETEYEYSGSEEEEEENDSGEPSSILNLPGESTLRRDFLRLQLANKERSEALRRQQLEQQQRENEEHKRQLLAERQKRIEEQKEQRRRLEEQQRREKELRKQQEREQRRHYEEQMRREEERRRAEHEQEYIRRQLEEEQRQLEILQQQLLHEQALLLEYKRKQLEEQRQAERLQRQLKQERDYLVSLQHQRQEQRPVEKKPLYHYKEGMSPSEKPAWAKEVEERSRLNRQSSPAMPHKVANRISDPNLPPRSESFSISGVQPARTPPMLRPVDPQIPHLVAVKSQGPALTASQSVHEQPTKGLSGFQEALNVTSHRVEMPRQNSDPTSENPPLPTRIEKFDRSSWLRQEEDIPPKVPQRTTSISPALARKNSPGNGSALGPRLGSQPIRASNPDLRRTEPILESPLQRTSSGSSSSSSTPSSQPSSQGGSQPGSQAGSSERTRVRANSKSEGSPVLPHEPAKVKPEESRDITRPSRPASYKKAIDEDLTALAKELRELRIEETNRPMKKVTDYSSSSEESESSEEEEEDGESETHDGTVAVSDIPRLIPTGAPGSNEQYNVGMVGTHGLETSHADSFSGSISREGTLMIRETSGEKKRSGHSDSNGFAGHINLPDLVQQSHSPAGTPTEGLGRVSTHSQEMDSGTEYGMGSSTKASFTPFVDPRVYQTSPTDEDEEDEESSAAALFTSELLRQEQAKLNEARKISVVNVNPTNIRPHSDTPEIRKYKKRFNSEILCAALWGVNLLVGTENGLMLLDRSGQGKVYNLINRRRFQQMDVLEGLNVLVTISGKKNKLRVYYLSWLRNRILHNDPEVEKKQGWITVGDLEGCIHYKVVKYERIKFLVIALKNAVEIYAWAPKPYHKFMAFKSFADLQHKPLLVDLTVEEGQRLKVIFGSHTGFHVIDVDSGNSYDIYIPSHIQGNITPHAIVILPKTDGMEMLVCYEDEGVYVNTYGRITKDVVLQWGEMPTSVAYIHSNQIMGWGEKAIEIRSVETGHLDGVFMHKRAQRLKFLCERNDKVFFASVRSGGSSQVFFMTLNRNSMMNW
# Variants of: B1
# Conditions: with STK26, Q9P289-1
# Chain of STK26, Q9P289-1 (Q9P289 whole entry, looked up): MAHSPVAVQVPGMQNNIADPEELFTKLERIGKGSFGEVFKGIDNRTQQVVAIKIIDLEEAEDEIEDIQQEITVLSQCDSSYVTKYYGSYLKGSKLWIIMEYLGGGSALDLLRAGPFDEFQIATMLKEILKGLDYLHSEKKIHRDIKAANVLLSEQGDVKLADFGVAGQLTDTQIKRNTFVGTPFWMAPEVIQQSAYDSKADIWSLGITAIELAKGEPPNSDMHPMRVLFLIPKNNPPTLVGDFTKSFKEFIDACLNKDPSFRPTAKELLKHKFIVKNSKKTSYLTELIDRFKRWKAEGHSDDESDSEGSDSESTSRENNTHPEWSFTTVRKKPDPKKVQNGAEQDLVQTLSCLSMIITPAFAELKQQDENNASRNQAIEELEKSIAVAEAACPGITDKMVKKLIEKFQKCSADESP
row,effect of a mutation on the interaction,Variant
1,increasing interaction strength,K54A
2,increasing interaction strength,R152A;D153A
